Target: biotinylated mIL-12 (mIL-12a-AviTag-His6 and untagged mIL-12b) (mouse) (UniProt P43431)
Assay: BLI

mIL-12Rβ1_(D1-D2) (from mIL-12Rβ1_(D1-D2)-CASP3-AviTag-His6), analyte in BLI (domain or fragment), sequence (Q60837 20-738): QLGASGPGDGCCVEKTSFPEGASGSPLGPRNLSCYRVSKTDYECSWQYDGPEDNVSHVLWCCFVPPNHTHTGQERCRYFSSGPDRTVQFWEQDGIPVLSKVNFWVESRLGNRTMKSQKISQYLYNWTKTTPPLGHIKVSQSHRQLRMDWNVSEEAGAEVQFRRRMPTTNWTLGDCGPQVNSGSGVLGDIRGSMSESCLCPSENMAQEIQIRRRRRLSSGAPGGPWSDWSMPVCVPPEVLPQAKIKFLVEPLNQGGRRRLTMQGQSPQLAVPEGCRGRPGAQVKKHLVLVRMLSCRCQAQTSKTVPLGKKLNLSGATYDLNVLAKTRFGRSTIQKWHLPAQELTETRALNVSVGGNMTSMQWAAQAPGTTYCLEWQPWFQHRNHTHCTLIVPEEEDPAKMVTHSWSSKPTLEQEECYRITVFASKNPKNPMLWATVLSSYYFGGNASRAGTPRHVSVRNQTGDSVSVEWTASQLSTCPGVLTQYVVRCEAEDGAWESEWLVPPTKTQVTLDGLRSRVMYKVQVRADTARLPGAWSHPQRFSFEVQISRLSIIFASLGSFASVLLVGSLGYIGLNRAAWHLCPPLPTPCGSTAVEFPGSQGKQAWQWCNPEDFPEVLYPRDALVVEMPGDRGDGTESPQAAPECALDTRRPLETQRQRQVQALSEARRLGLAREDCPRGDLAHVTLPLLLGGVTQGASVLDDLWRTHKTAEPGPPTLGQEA
biotinylated mIL-12 (mIL-12a-AviTag-His6 and untagged mIL-12b) (mouse), sequence (P43431 23-215, chain 1 of 2): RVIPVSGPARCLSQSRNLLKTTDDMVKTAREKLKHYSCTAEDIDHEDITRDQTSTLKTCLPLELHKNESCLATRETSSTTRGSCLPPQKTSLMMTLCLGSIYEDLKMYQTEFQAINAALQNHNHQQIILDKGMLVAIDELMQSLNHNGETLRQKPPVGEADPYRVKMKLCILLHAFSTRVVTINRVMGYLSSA
biotinylated mIL-12 (mIL-12a-AviTag-His6 and untagged mIL-12b) (mouse), sequence (P43432 23-335, chain 2 of 2, further chain): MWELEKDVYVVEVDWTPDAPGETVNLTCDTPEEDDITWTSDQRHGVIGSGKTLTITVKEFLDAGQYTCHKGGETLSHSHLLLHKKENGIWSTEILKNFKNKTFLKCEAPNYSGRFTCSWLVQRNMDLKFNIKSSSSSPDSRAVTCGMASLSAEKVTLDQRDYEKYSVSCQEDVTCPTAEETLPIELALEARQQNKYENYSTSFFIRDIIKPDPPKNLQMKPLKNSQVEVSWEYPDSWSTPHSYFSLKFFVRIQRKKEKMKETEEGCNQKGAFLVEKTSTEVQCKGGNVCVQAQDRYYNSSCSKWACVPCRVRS

Substance: mIL-12Rβ1_(D1-D2) (from mIL-12Rβ1_(D1-D2)-CASP3-AviTag-His6), analyte in BLI (domain or fragment)
- fold higher affinity than the human counterparts (hIL-12 for hIL-12Rβ1): 10 fold
